# Measured values as given in patent US11160869B2 (priority 2019, dated 2021).
# B1: IL-10 delivery construct: recombinant homodimeric fusion protein: N-terminal methionine, cholix386 domain, polyGlySer spacer, recombinant human IL-10 (protein)
# chain: MVEEALNIFDECRSPCSLTPEPGKPIQSKLSIPSDVVLDEGVLYYSMTINDEQNDIKDEDKGESIITIGEFATVRATRHYVNQDAPFGVIHLDITTENGTKTYSYNRKEGEFAINWLVPIGEDSPASIKISVDELDQQRNIIEVPKLYSIDLDNQTLEQWKTQGNVSFSVTRPEHNIAISWPSVSYKAAQKEGSRHKRWAHWHTGLALCWLVPMDAIYNYITQQNCTLGDNWFGGSYETVAGTPKVITVKQGIEQKPVEQRIHFSKGNAMSALAAHRVCGVPLETLARSRKPRDLTDDLSCAYQAQNIVSLFVATRILFSHLDSVFTLNLDEQEPEVAERLSDLRRINENNPGMVTQVLTVARQIYNDYVTHHPGLTPEQTSAGAQAGGGGSGGGGSGGGGSPGQGTQSENSCTHFPGNLPNMLRDLRDAFSRVKTFFQMKDQLDNLLLKESLLEDFKGYLGCQALSEMIQFYLEEVMPQAENQDPDIKAHVNSLGENLKTLRLRLRRCHRFLPCENKSKAVEQVKNAFNKLQEKGIYKAMSEFDIFINYIEAYMTMKIRN
# modifications: homodimer
# Tests used:
# [1] = Liquid formulation screens: freeze/thaw, shear stress, short-term stability; type: physicochemical; settings: 20 mg/mL, formulations of TABLE 11
# Procedure: Formulation development to establish the lyophilization buffer was performed by initially screening the freeze-thaw and shear-induced liquid stability of the target construct following dialysis into combinations of several components outlined below:
# Using these two formulations, in order to ensure that the UF/DF step would function as intended and that freezing at the beginning of the lyophilization process would be acceptable, a final liquid formulation freeze/thaw screen and short-term stability study was conducted at higher protein concentrations as outlined in TABLE 11 below.
# This formulation was recommended to proceed as the buffer to be used in the UF/DF formulation step prior to lyophilization.
# plasma cytokines, IL-1Ra = experiment: MSD 10-plex proinflammatory panel and plasma IL-1Ra immunoassay, oxazolone dose-response; set-up: species or system mice; settings: mouse, in vivo
# Text: Plasma cytokines were quantified using the V-plex Proinflammatory Panel 1 Mouse Kit. Plasma IL-1Ra was quantitated by sandwich immunoassay using an antibody pair from the Mouse IL-1Ra/IL-1F3 DuoSet ELISA (R&D Systems #DY480), Streptavidin SULFO-TAG Labeled (MSD #R32AD-1), Multi-Array 96 Plate Pack, SECTOR Plate MSD #L15XA-3 and Read Buffer T (4×) (MSD #R92TC-2). Samples were read on the QuickPlex SQ 120 plate reader (Meso Scale Discovery, Rockville, Md.).
# DSS-induced colitis = DSS-induced colitis dose-response (0.3, 3, 10, 30 mg/kg): in-life, necropsy, histology; type: in vivo, C57BL6/J mice
# Procedure: DSS-induction of murine colitis was performed by Bolder BioPATH, Inc. (CO, USA). Female C57BL6/J mice (8-10 weeks old) were given 2.5% dextran sodium sulfate (w/v) (Spectrum, Lot #2DC0020) ad libitum in the drinking water from day 0 through day 7. On day 7, DSS was replaced with water, and the animals were maintained until day 10.
# Colon histology was scored based on inflammation, gland loss, erosion and hyperplasia (max of 5 each), and these were totaled in the summary score. […] Five additional parameters (edema, neutrophil infiltration, mucosal thickness, lymphoid aggregate and lymphoid aggregate size) were also quantified. […] These histological results thus indicate a mild degree of local drug efficacy.
# [2] = Phase 1a single ascending dose in healthy male volunteers; type: in vivo, human
# Procedure: In part B of the study, early data was gathered on the safety and tolerability, pharmacokinetics, pharmacodynamics and early clinical response following multiple ascending doses of the IL-10 delivery construct in Ulcerative Colitis (UC) patients (Part B).
# Part A consisted of a single-ascending dose (SAD) escalation in healthy male volunteers. Six cohorts consisting of orally administered single ascending doses were conducted. At each dose level, 6 subjects were enrolled, randomized 2:4 to receive a single dose of placebo or the IL-10 delivery construct on day 1. The doses selected were 1 mg, 3 mg, 10 mg, 30 mg, 60 mg, and 120 mg.
# [3] = Purification with and without sulfitolysis: SEC-HPLC forms, yield and dimer recovery after Capto Q; settings: for Dimer Purity after Capto Q Chromatography: Capto Q load 1680 mg; for Dimer Purity: after Capto Q chromatography
# Procedure: Refolding in both processes was carried out at 4° C. The refolding solution used in both processes contained 1 mM reduced glutathione, 0.5 mM oxidized glutathione, 1M Arginine-HCl, 250 mM sucrose, 100 mM Tris pH 8.5 at 4° C., and 2 mM EDTA.
# STAT3 = experiment: pSTAT3 induction and hIL-10 in intestinal tissue 40 min after oral gavage, immunofluorescence and image analysis; type: in vivo, rat; settings: 40 min post oral gavage
# Procedure: This observation is consistent with findings in mice that intestinal epithelial cells can express IL-10 receptors at their apical surface under certain conditions associated with development and maintenance of barrier function. […] In order to quantify how test articles affected intestinal IL-10 signal transduction pathways, image analysis was performed: high-throughput image batches were collected, segmented by epithelial versus lamina propria localization, and then by cellular features.
# [4] = 37 C, 5 h, 0.3 mg/mL
# IL-10RA and IL-10RB = molecular target: T1, IL-10RA and IL-10RB (Homo sapiens, UniProt Q08334+Q13651); experiment: IL-10 receptor dimerization luminescence assay in engineered U2OS cells; settings: read-out: EC50, IL-10R dimerization; 6 h
# T1 sequence (Q13651 22-578): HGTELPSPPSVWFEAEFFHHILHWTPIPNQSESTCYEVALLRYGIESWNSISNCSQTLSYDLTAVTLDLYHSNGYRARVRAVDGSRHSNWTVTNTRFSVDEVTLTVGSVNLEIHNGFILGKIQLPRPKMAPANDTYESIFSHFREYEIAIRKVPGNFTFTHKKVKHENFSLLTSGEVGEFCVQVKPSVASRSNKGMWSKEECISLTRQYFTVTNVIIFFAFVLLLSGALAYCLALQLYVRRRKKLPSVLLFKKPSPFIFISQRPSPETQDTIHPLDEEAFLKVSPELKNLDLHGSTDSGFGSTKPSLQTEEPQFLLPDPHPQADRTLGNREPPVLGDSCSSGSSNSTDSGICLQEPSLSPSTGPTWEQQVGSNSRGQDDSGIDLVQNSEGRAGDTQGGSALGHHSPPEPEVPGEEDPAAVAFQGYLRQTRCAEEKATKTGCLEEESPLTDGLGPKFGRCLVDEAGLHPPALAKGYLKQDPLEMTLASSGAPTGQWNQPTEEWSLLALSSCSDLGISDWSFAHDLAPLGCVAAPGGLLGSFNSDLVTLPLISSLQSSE
# T1 sequence (Q08334 20-325): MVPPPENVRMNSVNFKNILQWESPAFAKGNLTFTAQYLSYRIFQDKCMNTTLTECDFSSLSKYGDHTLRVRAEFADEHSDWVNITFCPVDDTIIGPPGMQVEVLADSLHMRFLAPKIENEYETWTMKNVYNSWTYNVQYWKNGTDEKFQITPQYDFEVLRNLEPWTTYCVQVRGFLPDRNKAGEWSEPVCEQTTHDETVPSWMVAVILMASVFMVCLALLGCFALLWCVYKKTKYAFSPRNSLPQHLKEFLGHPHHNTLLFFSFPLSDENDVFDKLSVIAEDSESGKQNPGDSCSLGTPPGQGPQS
# [5] = No Sulfitolysis of SIB (2x UF/DF at 4° C.), SEC-HPLC before AEX
# [6] = No Sulfitolysis of SIB (2x UF/DF for 66 h RT), SEC-HPLC before AEX
# [7] = No Sulfitolysis of SIB (97 mL Capto Q)
# [8] = Sulfitolysis of SIB (97 mL Capto Q)
# [9] = Sulfitolysis of SIB (TFF-2 for 20 h at RT), SEC-HPLC after UF/DF, before AEX
molecule,measurement,setting,value
B1,aggregation during freeze/thaw or at 1 week at 4 C,[1],did not show any significant increases in aggregation
same,"plasma cytokines, MSD 10-plex, vs Vehicle","plasma cytokines, IL-1Ra",no significant differences
same,"edema width, mucosal thickness, hyperplasia in the mid region","DSS-induced colitis; 30 mg/kg, relative to Vehicle",significantly improved
same,colon length,"DSS-induced colitis; 10 and 30 mg/kg, p<0.05 vs vehicle",Significant improvement in colon length
same,DSS-induced weight loss,"DSS-induced colitis; construct 30 mg/kg, CsA 75 mg/kg, q.d. oral",significantly reduced DSS-induced weight loss
same,"summed histology score (inflammation, gland loss, erosion, hyperplasia)","DSS-induced colitis; mouse, in vivo",did not reveal any significant improvements
same,IL-1Ra induction at high doses,[2]; 60 and 120 mg,loss of immunomodulatory activity
same,drug in blood,[2]; all doses (1-120 mg),no drug was detected in the blood
same,adverse events in 24 active subjects,"[2]; all mild, self-limiting",2
same,IL-1Ra expression,[2]; single dose,able to induce IL-1Ra expression
same,safety and tolerability,[2]; single oral doses 1-120 mg,safe and well tolerated
same,Aggregate %,[3]; [5],36%
same,Monomer %,[3]; [5],22%
same,Aggregate %,[3]; [6],57%
same,Monomer %,[3]; [6],11%
same,Dimer Purity after Capto Q Chromatography,[3]; [7],84%
same,Dimer Purity,[3]; [7],84%
same,Dimer Purity after Capto Q Chromatography,[3]; [8],74%
same,Dimer Purity,[3]; [8],74%
same,Aggregate %,[3]; [9],68%
same,Monomer %,[3]; [9],8%
same,Dimer Purity,[3]; Sulfitolysis of SIB (average of 3),82-83%
same,hIL-10 and pSTAT3 in intestinal tissue,STAT3,extensive amounts of hIL-10 and a large number of cells that were positive for pSTAT3 within the lamina propria
same,solution stability after reconstitution in PBS,[4],significant degradation
same,EC50,IL-10RA and IL-10RB,971 pM
